From PMC3169630

Legend:
[1] = target: recombinant human Siglec-3 Fc fusion protein (human) (UniProt P20138); assay: SPR; BIAcore 3000, CM5 chip; Siglec-Fc immobilised at high density (12000–20000 RU); gp120 in PBS or HBS-P injected at 20 µL/min; KD from kinetic curve fitting
[2] = target: recombinant human Siglec-5 Fc fusion protein (human) (UniProt O15389); assay: as above
[3] = target: recombinant human Siglec-7 Fc fusion protein (human) (UniProt Q9Y286); assay: as above
[4] = target: recombinant human Siglec-1-Fc (four N-terminal Ig domains of hSiglec-1 fused to the Fc regions of human IgG1) (human); assay: SPR; BIAcore 3000, CM5 chip; Siglec-Fc immobilised at moderate density (2000–7000 RU; capture with immobilized protein A or amine cross-link); gp120 10–500 nM in PBS or HBS-P injected at 20 µL/min; KD from kinetic curve fitting
[5] = target: recombinant human Siglec-3 Fc fusion protein (human) (UniProt P20138); assay: as above
[6] = target: recombinant human Siglec-5 Fc fusion protein (human) (UniProt O15389); assay: as above
[7] = target: recombinant human Siglec-7 Fc fusion protein (human) (UniProt Q9Y286); assay: as above
[8] = target: recombinant human Siglec-9 Fc fusion protein (human) (UniProt Q9Y336); assay: as above
Chain of UniProt Q9Y336 (Q9Y336 18-348): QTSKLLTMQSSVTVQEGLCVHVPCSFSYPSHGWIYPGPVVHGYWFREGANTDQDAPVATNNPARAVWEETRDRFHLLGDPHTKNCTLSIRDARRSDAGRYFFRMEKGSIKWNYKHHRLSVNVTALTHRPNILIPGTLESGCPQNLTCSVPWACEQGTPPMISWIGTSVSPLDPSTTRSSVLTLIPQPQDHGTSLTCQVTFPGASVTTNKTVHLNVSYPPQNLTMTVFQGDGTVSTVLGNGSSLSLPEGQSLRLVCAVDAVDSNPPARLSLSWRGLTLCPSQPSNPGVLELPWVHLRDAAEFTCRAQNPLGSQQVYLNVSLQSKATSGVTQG

Chain of UniProt Q9Y286 (Q9Y286 19-353): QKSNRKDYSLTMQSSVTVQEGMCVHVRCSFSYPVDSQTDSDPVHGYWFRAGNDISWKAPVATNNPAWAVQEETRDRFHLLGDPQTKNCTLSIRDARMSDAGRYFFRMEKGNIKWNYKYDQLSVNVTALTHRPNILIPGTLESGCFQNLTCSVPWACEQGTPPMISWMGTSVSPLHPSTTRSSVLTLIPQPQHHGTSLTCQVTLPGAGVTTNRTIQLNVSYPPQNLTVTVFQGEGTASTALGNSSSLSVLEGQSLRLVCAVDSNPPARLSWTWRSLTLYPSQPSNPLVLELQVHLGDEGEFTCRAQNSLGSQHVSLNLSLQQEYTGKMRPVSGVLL
Chain of UniProt P20138 (P20138 18-259): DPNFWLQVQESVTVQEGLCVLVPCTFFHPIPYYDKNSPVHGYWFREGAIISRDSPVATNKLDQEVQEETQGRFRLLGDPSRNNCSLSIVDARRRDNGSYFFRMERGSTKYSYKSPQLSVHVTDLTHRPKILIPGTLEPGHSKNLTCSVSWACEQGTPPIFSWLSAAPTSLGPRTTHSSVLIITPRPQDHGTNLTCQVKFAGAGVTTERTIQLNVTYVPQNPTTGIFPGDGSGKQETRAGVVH
Chain of UniProt O15389 (O15389 17-441): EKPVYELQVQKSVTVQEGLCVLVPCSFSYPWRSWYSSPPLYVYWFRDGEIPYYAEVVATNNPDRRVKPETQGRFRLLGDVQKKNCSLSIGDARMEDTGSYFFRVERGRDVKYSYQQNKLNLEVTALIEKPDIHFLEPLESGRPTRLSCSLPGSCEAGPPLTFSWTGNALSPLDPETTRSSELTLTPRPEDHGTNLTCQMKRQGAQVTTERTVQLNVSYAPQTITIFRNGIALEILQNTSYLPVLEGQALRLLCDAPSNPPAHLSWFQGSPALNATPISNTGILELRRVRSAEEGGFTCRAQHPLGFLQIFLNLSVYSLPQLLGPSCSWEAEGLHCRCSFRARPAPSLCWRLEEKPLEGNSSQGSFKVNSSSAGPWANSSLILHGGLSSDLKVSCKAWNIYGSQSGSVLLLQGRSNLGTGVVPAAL

Row | Substance | Kd [1] [µM] | Kd [2] [µM] | Kd [3] [µM] | Kd [4] [µM] | Kd [5] [µM] | Kd [6] [µM] | Kd [7] [µM] | Kd [8] [µM]
1 | recombinant gp120 from the 92UG21-9 HIV-1 isolate (natural protein) | 0.08 | 0.05 | 0.05 | 0.08 | 3.8 | 47.1 | 49.2 | 0.05
2 | recombinant gp120 from the 93UG037 HIV-1 isolate (monomeric) (natural protein) | 0.051 | 0.054 | 0.094 | 6.3 | – | 20.3 | 9.9 | 0.1
3 | recombinant gp120 from the 93MW959 HIV-1 isolate (natural protein) | 0.012 | 0.015 | 0.02 | – | – | – | – | –
4 | recombinant gp120 from the SIVsmm PBj1.9 isolate (natural protein) | 0.18 | 0.014 | 0.019 | 0.12 | 54.5 | 50.5 | 35.4 | 0.27
5 | recombinant gp120 from the 92US715 HIV-1 isolate (natural protein) | 0.008 | 0.02 | 0.04 | 0.13 | 57.8 | 9.4 | 53.4 | 0.023
6 | trimeric gp120 from the 93UG037 strain fused with a trimerization domain from T4 bacteriophage fibritin | – | – | – | 0.9 | – | 5.1 | 2.7 | 0.08
